Test results from US20260176373A1 (BRIGHT BIOLOGICS, published 2026).

T1: human TROP2 (Trophoblast cell-surface antigen 2) (human, UniProt P09758 27-323)
T1 construct: whole, on cells; also called TACSTD2; h-TROP2
T1 sequence (looked up): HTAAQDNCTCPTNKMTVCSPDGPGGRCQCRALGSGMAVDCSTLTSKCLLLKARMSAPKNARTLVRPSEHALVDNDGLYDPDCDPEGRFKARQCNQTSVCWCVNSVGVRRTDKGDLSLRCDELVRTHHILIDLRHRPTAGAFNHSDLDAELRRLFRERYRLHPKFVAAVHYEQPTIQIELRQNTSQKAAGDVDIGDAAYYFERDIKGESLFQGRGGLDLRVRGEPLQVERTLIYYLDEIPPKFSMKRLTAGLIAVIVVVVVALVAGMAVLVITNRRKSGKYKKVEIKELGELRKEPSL


How the values were obtained:
[1] = target: T1, human TROP2 (Trophoblast cell-surface …); assay: flow cytometry whole cell binding, CHO-h-TROP2 stable cells
Description: (§1) Binding of bivalent anti-TROP2 VHH-Fc clones to human TROP2 in human TROP2 stably transfected CHO cells (CHO-h-TROP2 stable cells) were determined by flow cytometry whole cell binding (WCB) assays. Briefly, antibodies were incubated at different concentrations with CHO-h-TROP2 stable cells (0.2×10⁶/ml) in 96-well plates (100 μl/well) in FACS buffer for 30 min. After washing, Alexa Fluor 488 conjugated anti-human IgG Fc secondary antibody was added, and incubated for 30 min. After washing, MFI was measured using CytoFlex by gating live cell population with FITC channel. EC50 of binding was calculated using GraphPad Prism7.0.
Humanization of Alpaca clone 1H11 was carried out using the same strategy. Ten humanized VHH-Fc variants were made with minor difference in Framework 2. The binding activity of humanized variants to human TROP2 was examined using whole cell binding assays.

[2] = target: T1, human TROP2 (Trophoblast cell-surface …); assay: flow cytometry whole cell binding, Colo205 cells (endogenous TROP2)
[3] = target: T1, human TROP2 (Trophoblast cell-surface …); assay: flow cytometry whole cell binding, NCI-H1975 cells (endogenous TROP2)
[4] = target: human TROP2 (Trophoblast cell-surface antigen 2) (human) (UniProt P09758); assay: cell-based or functional assay
[5] = target: T1, human TROP2 (Trophoblast cell-surface …); assay: flow cytometry whole cell binding, CHO-h-TROP2 stable cells; remark: listed apart in the source
Description: as §1
The same strategy was carried out for the humanization of Alpaca clone 4C6. Ten humanized VHH-Fc variants were made for 4C6 with minor difference in Framework 2 and Framework 3. Whole cell binding to CHO-h-TROP2 stable cells was performed to compare the binding affinities of these humanized VHH-Fc variants to the parental Alpaca clone 4C6.

Row | EC50 [1] [nM] | EC50 [2] [nM] | EC50 [3] [nM] | EC50 [5] [nM] | Binder | further results
1 | 2.18 | 1.22 | 2.7 | – | 1H11-hv6 (humanized VHH-Fc variant of 1H11) (antibody, V domains shown) VH: EVQLVESGGGLVQPGGSLRLSCAASGGTFSRYIIGWFRQAPGKEREFVTTISGSGGSTYYADSVKGRFTISRDNSKNTLYLQMNSLRAEDTAVYYCASTFYSTTYVAQRDARDYAYWGQGTQVTVSS | –
2 | 2.29 | 1.71 | 3.12 | – | 1H11-hv10 (humanized VHH-Fc variant of 1H11, Example 5) (antibody, V domains shown, hinge not specified) VH: EVQLVESGGGLVQPGGSLRLSCAASGGTFSRYIMSWFRQAPGKEREFVSAISGSGGSTYYADSVKGRFTISRDNSKNTLYLQMNSLRAEDTAVYYCASTFYSTTYVAQRDARDYAYWGQGTQVTVSS | –
3 | 2.59 | 1.19 | 2.42 | – | 1H11-hv7 (humanized VHH-Fc variant of 1H11) (antibody, V domains shown) VH: EVQLVESGGGLVQPGGSLRLSCAASGGTFSRYIIGWFRQAPGKEREFVSTISGSGGSTYYADSVKGRFTISRDNSKNTLYLQMNSLRAEDTAVYYCASTFYSTTYVAQRDARDYAYWGQGTQVTVSS | –
4 | 1.97 | 1.29 | 2.54 | – | 1H11-hv8 (humanized VHH-Fc variant of 1H11, Example 5) (antibody, V domains shown, hinge not specified) VH: EVQLVESGGGLVQPGGSLRLSCAASGGTFSRYIMGWFRQAPGKEREFVSTISGSGGSTYYADSVKGRFTISRDNSKNTLYLQMNSLRAEDTAVYYCASTFYSTTYVAQRDARDYAYWGQGTQVTVSS | –
5 | 2.73 | 1.29 | 3.04 | – | 1H11-hv9 (humanized VHH-Fc variant of 1H11) (antibody, V domains shown) VH: EVQLVESGGGLVQPGGSLRLSCAASGGTFSRYIMSWFRQAPGKEREFVSTISGSGGSTYYADSVKGRFTISRDNSKNTLYLQMNSLRAEDTAVYYCASTFYSTTYVAQRDARDYAYWGQGTQVTVSS | –
6 | – | – | – | – | Immu-132_MMAE (protein, INN chains, looked up, vc-MMAE payload conjugate) VH: QVQLQQSGSELKKPGASVKVSCKASGYTFTNYGMNWVKQAPGQGLKWMGWINTYTGEPTYTDDFKGRFAFSLDTSVSTAYLQISSLKADDTAVYFCARGGFGSSYWYFDVWGQGSLVTVSS VL: DIQLTQSPSSLSASVGDRVSITCKASQDVSIAVAWYQQKPGKAPKLLIYSASYRYTGVPDRFSGSGSGTDFTLTISSLQPEDFAVYYCQQHYITPLTFGAGTKVEIK | IC50 (nM) in ADC mediated killing, NCI-H441 cells, Immu-132 MMAE DAR3.5 [4]: 0.047 nM; IC50 (nM) in ADC mediated killing, NCI-H441 cells, Immu-132 MMAE DAR4.0 [4]: 0.04 nM; IC50 (nM) in ADC mediated killing, NCI-H441 cells, Immu-132 MMAE DAR4.4 [4]: 0.033 nM; IC50, nM, in killing assay, A431 cells [4]: 0.611 nM; IC50, nM, in killing assay, AU-565 cells [4]: 0.0489 nM; IC50, nM, in killing assay, Colo205 cells [4]: 0.45 nM; IC50, nM, in killing assay, N87 cells [4]: 0.092 nM; IC50, nM, in killing assay, NCI-H441 cells [4]: 0.054 nM; IC50, nM, in killing assay, NCI-H1975 cells [4]: 0.25 nM; IC50, nM, in killing assay, OE-19 cells [4]: 1.1 nM; IC50, nM, in killing assay, SK-OV3 cells [4]: 1.44 nM; IC50, nM, in killing assay, SKBR3 cells [4]: 0.0362 nM; IC50, nM, in killing assay, T-47D cells [4]: 0.21 nM
7 | – | – | – | 1.46 | 4C6-hv10 (humanized VHH-Fc variant of 4C6) (antibody, V domains shown) VH: EVQLVESGGGLVQPGGSLRLSCAASGHPFAMYAMGWFRQAPGKEREFVAAIAGNGGSTSYADSVKGRFTISRDNSKNTLYLQMNSLRAEDTAVYYCAAAGGTFYSGTTVATRSSHYDYWGQGTQVTVSS | –
8 | – | – | – | 2.32 | 4C6-hv9 (humanized VHH-Fc variant of 4C6) (antibody, V domains shown) VH: EVQLVESGGGLVQPGGSLRLSCAASGHPFAMYAMGWFRQAPGKEREFVSAIAGNGGSTYYADSVKGRFTISRDNSKNTLYLQMNSLRAEDTAVYYCAAAGGTFYSGTTVATRSSHYDYWGQGTQVTVSS | –
9 | – | – | – | 2.6 | 4C6-hv4 (humanized VHH-Fc variant of 4C6) (antibody, V domains shown) VH: EVQLVESGGGLVQPGGSLRLSCAASGHPFAMYAMGWFRQAPGKEREFVSAIAGNGGSTSYADSVKGRFTISRDNSKNTLYLQMNSLRAEDTAVYYCAAAGGTFYSGTTVATRSSHYDYWGQGTQVTVSS | –
